Kd data for seven molecules are collected here from patent US20200031912A1 (published 2020).

To fix the notation:
B1: template (Macaque) CH2 domain molecule of SEQ ID NO: 2 (other)
chain: GPSVFLFPPKPKDTLMISRTPEVTCVVVDVSQEDPDVKFNWYVNGAEVHHAQTKPRETQYNSTYRVVSVLTVTHQDWLNGKEYTCKVSNKALPAPIQKTISKDK
B2: ABD02 (SEQ ID NO: 4) (designed binder)
chain: GPSVFLFPPKPKDTLMISRTPEVTCVFVDYRADYLEVKFNWYVDGAEVHNAKTKPRQYDPLYGYRVVSVLTVLHQDWLNGKEYTCKVSNKALPAPIEKTISKDK
B3: ABD05 (SEQ ID NO: 7) (designed binder)
chain: GPSVFLFPPKPKDTLMISRTPEVTCVFVDYRADYLEVKFNWYVDGAEVHHAKTKPRQYDPLYGYRVVSVLTVSHQDWLNGKEYTCKVSNKALPAPIEKTISKDK
B4: ABD03 (SEQ ID NO: 5) (designed binder)
chain: GPSVFLFPPKPKDTLMISRTPEVTCVFVDYRADYLEVKFNWYVDGAEVHHAKTKPRQYDPLYGYRVVSVLTVSHQDWLNGKEYTCKVSNKALPAPIQKTISKDK
B5: B11, a template CH2 domain molecule (SEQ ID NO: 12) (designed binder)
chain: GPSVFLFPPKPKDTLMISRTPEVTCVVVDYRADYLEVKFNWYVDGVEVHNAKTKPRQYDPLYGYRVVSVLTVLHQDWLNGKEYKCKVSNKALPAPIEKTISKAK
B6: ABD01 (SEQ ID NO: 3) (designed binder)
chain: GPSVFLFPPKPKDTLMISRTPEVTCVFVDYRADYLEVKFNWYVDGVEVHNAKTKPRQYDPLYGYRVVSVLTVLHQDWLNGKEYTCKVSNKALPAPIEKTISKDK
B7: ABD04 (SEQ ID NO: 6) (designed binder)
chain: GPSVFLFPPKPKDTMMISRTPEVTCVFVDYRADYLEVKFNWYVDGAEVHHAKTKPRQYDPLYGYRVVSVLTVSHQDWLNGKEYTCKVSNKALPAPIEKTISKDK

For the assay, the target named is human recombinant FcRn protein (human, UniProt P55899 24-297). Briefly: Biacore. (In general: In SPR one partner is held on a chip, and binding of the other changes the refractive index at the surface.)
Sequence of human recombinant FcRn protein (P55899 24-297): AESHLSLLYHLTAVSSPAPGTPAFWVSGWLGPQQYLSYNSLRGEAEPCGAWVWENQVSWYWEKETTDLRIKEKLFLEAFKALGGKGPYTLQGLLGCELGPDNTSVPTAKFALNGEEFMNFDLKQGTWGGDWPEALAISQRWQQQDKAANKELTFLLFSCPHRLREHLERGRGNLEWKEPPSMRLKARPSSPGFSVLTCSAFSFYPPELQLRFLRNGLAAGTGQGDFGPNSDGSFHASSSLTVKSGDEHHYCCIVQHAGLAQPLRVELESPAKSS
Broadly, the Kd is the free concentration of one partner at which half of the binding sites on the other are occupied at equilibrium, for simple one-to-one binding. On to B1, for which the Kd came out at 13 nM.
B2: the equilibrium dissociation constant (Kd) was found to be 21 nM.
Take B3: the Kd was determined as 9.1 nM.
As for B4, the figure is 11.4 nM; as for B5, 12 nM.
Take B6: the Kd is 4.18 nM.
As for B7, the figure is 8.9 nM.
